Assays:
[1] = molecular target: T1, HER2 on gastric cancer cells NCI-N87 and SNU216 (human, UniProt P04626 23-1255); assay: HER2 internalization assay on NCI-N87 and SNU216 cells, pHrodo dye, flow cytometry
T1 construct: whole, on cells; also called CD340; erbB2

[2] = molecular target: T2, HER2-Fc protein (human, UniProt P04626 23-652); assay: SPR (Biacore CM5), antibody immobilized by amine coupling, HER2-Fc injected
T2 construct: Bought reagent (Sino Biological, PA, USA, Cat. No. 10004-H02H, LC10JA1203); not shown: Fc part of the bought fusion

- binding result [1]: binds
- binding result [2]: binds
B1: Second anti-HER2 antibody (antibody, human IgG1, kappa, V domains shown)
VH: EVQLVESGGGLVQPGGSLRLSCAASGFTFSSYTMSWVRQAPGKGLEWVAYISAGGGSTYYPDTVKGRFTISRDNAKNSLYLQMNSLRAEDTAVYYCARHLGGTASFDYWGQGTLVTVSS
VL: DIQMTQSPSSLSASVGDRVTITCLASQTIGTWLAWYQQKPGKAPKLLIYVATSLADGVPSRFSGSGSGTDFTLTISSLQPEDFATYYCQQNAYAPWTFGQGTKVEIKR
notes: also called second antibody; hz1E11-133
